Kd, stoichiometry N (CA hexamer to FEZ1 (178–188)) and stoichiometry N (CA hexamer to FEZ1) data for one substance are collected here from paper PMC6736649.

What all share (experiment): ITC
(In general: ITC needs no label: the signal is the heat of the interaction.)

One assay has as its target FEZ1_(178–188) (human).
The target in assay [1] is FEZ1_(92–198 182EA) (human) (UniProt Q99689).
A further assay concerns the target FEZ1_(92–198) (human) (UniProt Q99689).

Broadly, the Kd is the constant that tells how readily two partners part at equilibrium. Consider “Disulfide-crosslinked CA (A14C/E45C) hexamer (complex)”, for which, in the assay with FEZ1_(178–188) (human), the Kd worked out at 180 nM and the stoichiometry N (CA hexamer to FEZ1 (178–188)) was 1. The substance also returned a stoichiometry N (CA hexamer to FEZ1) in assay [1] of 1.6. For the same substance, in the assay with FEZ1_(92–198) (human), the Kd was found to be 300 nM and the stoichiometry N (CA hexamer to FEZ1) turned out to be 1.3.
